{"source": "paper PMC8219829", "target": "protective antigen PA63 heptameric pore (PA_(pore)) (Bacillus anthracis)", "experiment": "cryo-EM structure", "data": [{"substance": "protective antigen PA63 heptameric pore (PA_(pore)) (natural protein)", "values": [{"measurement": "stoichiometry N", "value": 7}]}]}
